Positions count from the first letter of the chain named. Each block holds one binder with its values, some of them ahead of it.
Biological target: T1, human Claudin18.2 (human)
T1 construct: also called CLDN18.2
Test: cell ELISA, Claudin18.2-expressing HEK293T cells
Experimental: To determine protein binding EC₅₀ by Cell ELISA, 96-well U-bottom microplates were pre-blocked with blocking buffer (5% MPBS, 1×PBS with 5% skim milk) overnight at 4° C. On the next day, the Claudin18.2-expressing HEK293T stable cell line was suspended at 1.5×10⁶ cells/ml in blocking buffer, added to the plate in 100 μl/well and incubated at room temperature for 1 hour.
Raw data were plotted with GraphPad Prism v6.02 software with four parameters, best-fit value program to analyze the EC₅₀.

- EC50: 0.56 nM
B1: 248G8E8 (antibody, V domains shown)
VH: QVQLKESGPGLVAPSQSLSITCTVSGFSLTTYGVSWVRQPPGKGLEWLGVIWGDGSTNYHSTLISRLRISKDKSKSQVFLKLNSLQTDDTATYYCAKAGRGNALDYWGQGTSVTVSS
VL: DIVLTQSPSSLTVTAGEKVTMSCKSSQSLLNSGNQKNYLTWYQQKPGQPPKLLIYWASTRESGVPDRFTGSGSGTDFTLTISSVQAEDLAVYYCQNDYSFPLTFGAGTKLELK
notes: mouse hybridoma mAb

- EC50: 6.59 nM
B2: 246B5F2 (IgM) (antibody, V domains shown)
VH: EVMLVESGGGLMKPGGSLKLSCAASEFTFSNYAMSWVRQTPEKRLEWVATISSGRSSTYYPDSVKGRFTISRDNAKNTLYLQMSSLRSEDTAMYYCAGLGRGNAMEYWGQGTSVTVSS
VL: B1 VL with L4M, M21L, T78I, S82N, D97A, F100Y, L102F, A106S, L112I
notes: mouse hybridoma mAb, IgM

- EC50: ~9.62 nM
B3: 279E8B8 (antibody, V domains shown)
VH: QAYLQQSGAELVRSGASVKISCKASGYTFASHNMHWVKQTPGQGLEWIGYIYPGNGGTKYNQKFTGKATLSADTSSSTAYLQISSLTSEDSAVYFCARDYFGNSFVYWGQGTLVTVSA
VL: B1 VL with L4M, V13E, T14K, T20S, S22R, E87D, S99M, F100Y, L102F
notes: mouse hybridoma mAb

- EC50: ~0.429 nM
B4: 271B1B6 (antibody, V domains shown)
VH: QAYLQQSGAELVRSGASVKMSCKASGYTFTNYNIHWVKQTPGQGLEWIGYIYPGNGGNYYNQKFKGKATLTADTSSITAYMQISSLTSEDSAVYFCARDYYGNSFAYWGQGTLVTVSA
VL: B1 VL with L4M, S22N, V91I, S99Y, F100Y
notes: mouse hybridoma mAb

- EC50: 0.875 nM
B5: 292D9C7 (antibody, V domains shown)
VH: QVQLKESGPGLVAPSQSLSITCTVSGFSLTDYGVSWIRQPPGKGLEWLGVIWGGGNAYYNSALKSRLSISKDNSKSQVFLKMNSLRTDDTAMYYCAKNGLLRYLDYWGQGSTLTVSS
VL: B1 VL with I2T, L4M, T75R, A86V, V91I, S99Y, F100Y, L110V
notes: mouse hybridoma mAb

- EC50: ~0.378 nM
B6: 259B4D4 (antibody, V domains shown)
VH: EIQLQQSGPELMKPGASVRISCKASGYSFTSYYMHWMKQSHVKSLEWIGYIDPFNGNTRYNQKFKDKATLTVDKSSTTAYMHLSSLTSEDSAVYFCASLRFFAYWGQGTLVTVSA
VL: B1 VL with L4M, K24N, T59S, S83T, K109R
notes: mouse hybridoma mAb

- EC50: 0.982 nM
B7: 254A8D5 (antibody, V domains shown)
VH: EVMLVESGGGLVKPGGSLKLSCAASGFTFSSYTVSWVRQTPEKRLEWVATSIVGSTYTYFPDSVKGRFTISRDFAKNTLFLQMSSLRSEDTAMYYCSRLGRGNAMDYWGQGTSVSVSS
VL: B1 VL with L4M, M21L, S22N, K24R, E87D, D97G, F100Y, L102F, A106S, L112I
notes: mouse hybridoma mAb

- EC50: ~2.66 nM
B8: 391F1G2 (antibody, V domains shown)
VH: DVQLVESGGGLVQPGGSRKLSCAASGFTFSSFGMHWVRQAPEKGLEWVAYISSGSSPIYYADTVKGRFTISRDNPKNTLFLQMTSLRSEDTAMYFCARIYYGNSFAYWGQGTLVTVSA
VL: B1 VL with L4M, T20A, S28T, I54L, D97A, S99Y, F100Y, A106S
notes: mouse hybridoma mAb

- EC50: ~2.06 nM
B9: 275B2G2 (antibody, V domains shown)
VH: B7 VH with S30R, S31D, V34M, V53I, S55G, F60Y, F74N, A75V, F80Y, S115T
VL: B1 VL with L4M, F100Y, L102F, A106S, L112I
notes: mouse hybridoma mAb

- EC50: ~0.0831 nM
B10: 286C7F11 (antibody, V domains shown)
VH: B5 VH with G53N, G54R, A57T, K81R, R86Q, N98H, G99D, L100F, Y103F, S111T
VL: B1 VL with I2V, L4M, L52I, T78S, S82T, Q95L, S99Y, F100Y
notes: mouse hybridoma mAb

- EC50: 1.77 nM
B11: 262C7C10 (antibody, V domains shown)
VH: B4 VH
VL: B1 VL with L4M, S22N, V91I, S99Y, F100Y
notes: mouse hybridoma mAb

- EC50: ~14 nM
B12: 265E6G2 (antibody, V domains shown)
VH: B4 VH with N31S, I34M, N58T, Y59N, I77S
VL: B1 VL with I2L, L4M, S83N, V84I, F100Y, T103P, K113R
notes: mouse hybridoma mAb

- EC50: ~0.403 nM
B13: 242F5H2 (antibody, V domains shown)
VH: B7 VH
VL: B1 VL with L4M, M21L, S22N, K24R, E87D, D97G, F100Y, L102F, A106S, L112I
notes: mouse hybridoma mAb

- EC50: 1.21 nM
B14: 392A11C8 (antibody, V domains shown)
VH: B8 VH with S31G, V37I, A40T, S56R, I99F, A106D, Y107H
VL: B1 VL with L4M, S10F, K24R, V91L, D97A
notes: mouse hybridoma mAb

- EC50: 1.13 nM
B15: 273F3D4 (antibody, V domains shown)
VH: B1 VH with S28A, N58H, T62A, R68S, S70R, K73N, A98P, L104M
VL: B1 VL with L4M, T5S, P49S, V84M, S99I, F100Y, K109M
notes: mouse hybridoma mAb

- EC50: 0.611 nM
B16: 253E4F7 (antibody, V domains shown)
VH: EIQLQQSGPELMKPGASVKMSCKASGYSFTSYYIHWVKQSHGKSLEWIGYIDPFNGGTRYNQKFEGKATLTVDKSSTTAYMHLSSLTSEDSTVYYCASLRFLAYWGQGTLVTVSA
VL: B1 VL with L4M, S22T, L52V, Y55S, W56R, E61Q, F100Y
notes: mouse hybridoma mAb

- EC50: 1.83 nM
B17: 406F11G8 (antibody, V domains shown)
VH: B8 VH with P75S
VL: B1 VL with L4M, T20A, S28T, D97A, S99Y, F100Y, A106S
notes: mouse hybridoma mAb

- EC50: 2.14 nM
B18: 407A8G10 (antibody, V domains shown)
VH: B8 VH with S31G, V37I, A40T, S56R, I99F, A106D, Y107H
VL: B1 VL with L4M, S10F, K24R, K36R, T78A, V91L, D97A
notes: mouse hybridoma mAb

- EC50: 4.33 nM
B19: 406E1H7 (antibody, V domains shown)
VH: B8 VH with S31G, V37I, A40T, S56R, K65Q, I99F, A106D, Y107H, A118S
VL: B1 VL with L4M, S10F, V91L, D97A
notes: mouse hybridoma mAb

- EC50: ~0.397 nM
B20: 266B11F7 (antibody, V domains shown)
VH: B1 VH with L4M, S35T, T62A, I64T, N83S, A98P
VL: B1 VL with L4M, S22R, I54V, I81V, S99I
notes: mouse hybridoma mAb

- EC50: 2.38 nM
B21: 407D8G1 (antibody, V domains shown)
VH: B8 VH with S31G, V37I, A40T, S56R, K65Q, I99F, A106D, Y107H, A118S
VL: B1 VL with L4M, S10F, V91L, D97A
notes: mouse hybridoma mAb

- EC50: 0.88 nM
B22: 240F8G2 (antibody, V domains shown)
VH: B4 VH with I77S
VL: B1 VL with L4V, S22N, V91I, S99Y, F100Y
notes: mouse hybridoma mAb

- EC50: 0.646 nM
B23: 240A8E7 (antibody, V domains shown)
VH: B4 VH with G57D, I77S
VL: B1 VL with I2V, L4M, S22N, L52M, V91I, S99Y, F100Y, L102F
notes: mouse hybridoma mAb

- EC50: 2.81 nM
B24: 394C2G5 (antibody, V domains shown)
VH: B8 VH with S31G, V37I, A40T, I51V, S56R, I99F, A106D, Y107H
VL: B1 VL with L4M, S10F, S82N, S83N, V91L, D97A, K113T
notes: mouse hybridoma mAb

- EC50: 1.9 nM
B25: 237D2A4 (antibody, V domains shown)
VH: B1 VH with T31S
VL: B1 VL with L4M
notes: mouse hybridoma mAb

- EC50: 1.08 nM
B26: 263E9F3 (antibody, V domains shown)
VH: B16 VH with L4V, M20I, K23R, A24S, H41R, N55S, T92A, L102F
VL: B1 VL with L4M, S22T, K36E, K51E, Y55S, W56R, E61Q, A86T, F100Y
notes: mouse hybridoma mAb

- EC50: 1.24 nM
B27: 407E11H8 (antibody, V domains shown)
VH: B8 VH with S31D, V37I, A40T, S56R, A97V, I99F, Y101F, A106D, Y107H
VL: B1 VL with L4M, S10F, S22T, K24R, S28N, Q35L, Y55S, A86P, V91L, D97A
notes: mouse hybridoma mAb

- EC50: 2.05 nM
B28: 409D1A7 (antibody, V domains shown)
VH: B8 VH with S31G, V37I, A40T, S56R, Q82H, I99F, A106D, Y107H
VL: B1 VL with L4M, S10F, S22N, K36R, V91L, D97A, K113N
notes: mouse hybridoma mAb

- EC50: ~0.411 nM
B29: 268D7H9 (antibody, V domains shown)
VH: B4 VH with I77S
VL: B1 VL with V3A, L4M, S22N, V91I, S99Y, F100Y, K109T
notes: mouse hybridoma mAb

- EC50: 2.97 nM
B30: 391H11H3 (antibody, V domains shown)
VH: B8 VH with S31G, V37I, A40T, S56R, K65Q, I99F, A106D, Y107H, A118S
VL: B1 VL with L4M, S10F, V91L, D97A
notes: mouse hybridoma mAb

- EC50: 3.58 nM
B31: 395B3C11 (antibody, V domains shown)
VH: B8 VH with S31G, V37I, A40T, S56R, K65Q, I99F, A106D, Y107H, A118S
VL: B1 VL with L4M, S10F, V91L, D97A
notes: mouse hybridoma mAb

- EC50: ~0.37 nM
B32: 252E7C9 (antibody, V domains shown)
VH: QTYLQQSGAELVRSGASVKMSCRTSGYSFTSHNMHWVKQTPGQGLEWIGYIYPGNGGSYYNQKFKGKAILTADTSSSTAYMQISSLTSEDSAVYFCTRDYYGNSFVYWGQGTLVTVSA
VL: DVVMTQSPSSLTEKTGEKVSMSCKSSQSLLNSGNQKNYLTWYQQKPGQPPKLLIYWASTRESGVPDRFTGSGSGTDFTLTISSLQTEDLAIYYCQNNFRYPFTFGAGTKLELK
notes: mouse hybridoma mAb

- EC50: 1.8 nM
B33: 260F8A6 (antibody, V domains shown)
VH: B32 VH with T2A, T24A, S28T, G57N, S58T, I69T, S77N, S84N, T97V
VL: B32 VL with T69I, I91V, F98Y, R99M
notes: mouse hybridoma mAb

- EC50: ~12.5 nM
B34: 252C10F6 (antibody, V domains shown)
VH: QVHLKQSGRGLVQPSQSLSITCTVSGFSLPNYGVHWVRQPPGKGLEWLGVIWSGGNTDYNTVFKARLSITKDNSKSQVFFKMNSLQADDTAIYYCARNLYGNYDYAMDYWGQGTSVTVSS
VL: DIVMTQSPATLSVTPGDRVSLSCRASQSISDYLHWYQQKSHESPRLLIKYASQSISGIPSRFSGSGSGSEFTLSINSVEPEDVGVYYCQNGHSFPFTFGSGTKLEIK
notes: mouse hybridoma mAb

— patent US20220073643A1 (NANJING GENSCRIPT BIOTECH, published 2022)
